Data reported in publication doi:10.1101/2021.04.08.439061.
No end group written: not given here. *: point of attachment. 5FAM = O=C1OC2(c3ccc(O)cc3Oc3cc(O)ccc32)c2ccc(C(=O)*)cc21

Molecular target: HLA-A*03:01 (recombinant soluble heavy chain with β2-microglobulin) (human)
Assay: fluorescence polarisation

t1/2 of dissociation: 4.68 min
B1: pWT peptide fluorescently labeled at P5 (5-carboxyfluorescein-modified lysine in place of P5 Gly) (peptide)
peptide: AHHGK(5FAM)WTTK
